We go through two molecules from publication PMC3496014 (Journal of structural biology, 2012).

One assay has as its target T1, His6-PfAtg3 (P. falciparum 3D7, UniProt C0H519 1-313).
T1 sequence (looked up): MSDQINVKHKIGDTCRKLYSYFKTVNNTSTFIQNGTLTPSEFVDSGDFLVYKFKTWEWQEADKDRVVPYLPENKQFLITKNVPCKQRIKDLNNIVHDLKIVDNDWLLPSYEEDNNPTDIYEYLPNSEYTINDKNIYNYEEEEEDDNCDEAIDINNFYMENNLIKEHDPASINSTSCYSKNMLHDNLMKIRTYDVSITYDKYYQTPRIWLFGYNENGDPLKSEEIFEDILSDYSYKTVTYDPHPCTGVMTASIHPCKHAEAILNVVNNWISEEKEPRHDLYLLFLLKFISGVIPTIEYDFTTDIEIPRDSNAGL
Nature of the assay: SEC + other: dynamic light scattering.

For the next assay, the target named is His6-PfAtg8 R27E (P. falciparum 3D7, UniProt Q8IJK2 1-124, R27E). Briefly: pull-down.
The next assay concerns the target His6-PfAtg8 K47E (P. falciparum 3D7, UniProt Q8IJK2 1-124, K47E). Briefly: pull-down.
A further assay concerns the target His6-PfAtg8 L49A (P. falciparum 3D7, UniProt Q8IJK2 1-124, L49A). Briefly: pull-down.
The target of assay [1] is His6-PfAtg8 E44A/K45S/K46A (P. falciparum 3D7, UniProt Q8IJK2 1-124, E44A | K45S | K46A). Briefly: pull-down.

B1: His6-PfAtg8 wild type (natural protein, P. falciparum 3D7, UniProt Q8IJK2 1-124, looked up)
chain: MPSLKDEVSFENRVAETHKIRSKYPNRIPVVCERANRSNLPIIEKKKFLVPMNMLVGEFKFILHQHINQSAYGSNMKLFRERTIYLFVNNIVPKTGLLMQDLYEMYKDEDGYLYMEYSCESCLG
As for B1, the stoichiometry N (usually a count of units in the complex or per binding partner) in the assay with His6-PfAtg3 was found to be 1.

B2: MBP-PfAtg3 (enzyme)
chain: T1 sequence (looked up)
Regarding B2, the binding result (in the assay with His6-PfAtg8 R27E; with His6-PfAtg8 K47E; with His6-PfAtg8 L49A; in assay [1]) was “binds” throughout.
